Results on two proteins are retold here after publication PMC4595758, “Redox-switch regulatory mechanism of thiolase from Clostridium acetobutylicum” (Nature Communications, 2015).

Where a chain is given by its changes, count along the chain named. Numbers in names are those of the source.

Series [1] concerns the molecule itself. Put plainly: crystal structure; oxidized form of CaTHL, 1.77 Å, space group P2(1)2(1)2, two molecules per asymmetric unit, tetramer generated by crystallographic symmetry; crystals from 100 mM phosphate-citrate pH 4.2, 10% PEG 3,350, 200 mM sodium chloride at 293 K.
Series [2] concerns the molecule itself. Put plainly: crystal structure; CaTHL C378S (reduced form, 10 mM DTT) crystals soaked with 30 mM CoA for 30 min, 1.90 Å, space group P2(1)2(1)2.

B1: Clostridium acetobutylicum thiolase (CaTHL), wild type, oxidized form (enzyme, UniProt P45359 1-392, looked up)
chain: MKEVVIASAVRTAIGSYGKSLKDVPAVDLGATAIKEAVKKAGIKPEDVNEVILGNVLQAGLGQNPARQASFKAGLPVEIPAMTINKVCGSGLRTVSLAAQIIKAGDADVIIAGGMENMSRAPYLANNARWGYRMGNAKFVDEMITDGLWDAFNDYHMGITAENIAERWNISREEQDEFALASQKKAEEAIKSGQFKDEIVPVVIKGRKGETVVDTDEHPRFGSTIEGLAKLKPAFKKDGTVTAGNASGLNDCAAVLVIMSAEKAKELGVKPLAKIVSYGSAGVDPAIMGYGPFYATKAAIEKAGWTVDELDLIESNEAFAAQSLAVAKDLKFDMNKVNVNGGAIALGHPIGASGARILVTLVHAMQKRDAKKGLATLCIGGGQGTAILLEKC
notes: Thiolase (acetyl-CoA acetyltransferase) of Clostridium acetobutylicum, amino acid residues 1-392, amplified from the chromosome and cloned into pET30a; In the crystal (oxidized form) a disulfide bond joins Cys88 and Cys378, and residues 280-292 are disordered; Two molecules per asymmetric unit; the tetramer is generated by crystallographic symmetry; also called C. acetobutylicum thiolase; type II …
As to B1, in series [1], the “stoichiometry N” value worked out at 4.

B2: Clostridium acetobutylicum thiolase C378S mutant (reduced form of CaTHL) (enzyme, UniProt P45359 1-392, looked up)
chain: B1 chain with C378S
notes: Thiolase (acetyl-CoA acetyltransferase) of Clostridium acetobutylicum, amino acid residues 1-392, with the C378S mutation made by site-directed mutagenesis; Crystallized with 10 mM DTT; For the CoA complex the crystals were soaked with 30 mM CoA for 30 min; also called CaTHL C378S mutant
In the case of B2, the binding result in series [2] is listed as “binds”.

A word on the stoichiometry N: it is a count of units in the complex or per binding partner.
